In general, stoichiometry N refers to a count of units in the complex or per binding partner.

The target of the assay is CC1-CC2-SUN fragment of mouse SUN2 (SUN2 residues 410-731), wild type (mouse). The assay is described as follows: SEC. For orientation: SEC sorts molecules by how far they enter the pores of the column.

The substance “CC1-CC2-SUN fragment of mouse SUN2 (SUN2 residues 410-731), wild type (domain or fragment)” yielded a stoichiometry N of 3.

Values taken from publication PMC6232973.
